Test results reported in paper PMC5558965, “Cysteine-rich protein 2 accelerates actin filament cluster formation” (PLoS ONE, 2017).

Molecular target: Actin protein (from Bovine skeletal muscle), polymerised to F-actin (bovine, UniProt P68138 1-377)
Assay: cell-based or functional assay

B1: Cysteine-rich protein 2 (CRP2), recombinant mouse, full length, with (His)6 tag at the C-terminus (natural protein)
chain: MPVWGGGNKCGACGRTVYHAEEVQCDGRSFHRCCFLCMVCRKNLDSTTVAIHDEEIYCKSCYGKKYGPKGYGYGQGAGTLNMDRGERLGIKPESAQPHRPTTNPNTSKFAQKYGGAEKCSRCGDSVYAAEKIIGAGKPWHKNCFRCAKCGKSLESTTLTEKEGEIYCKGCYAKNFGPKGFGYGQGAGALVHAQ
For B1, the “SAXS decreasing ratio d (0.01 < Q < 0.016) of F-actin; F-actin:CRP2 ratio 1:0 to 1:4.6 (d 1.4 to 3.4)” value was 3.4.
